According to US6589750B2, “Therapeutic use of the SMR1 protein, the SMR1 maturation products, specifically the QHNPR pentapeptide as well as its biologically active derivatives” (Institut Pasteur, priority 1997, dated 2003):
Square brackets hold non-standard residues; d marks the D form. Ends that are not written are not given here. pGlu = O=C1CC[C@@H](C(=O)O)N1

What was measured:
[1] = Chromatographic characterization of radioactive peptide uptake by tissues (methanol extraction, RP-HPLC); format: in vivo, rat
Experimental: The chromatographic characteristics of the labeled compound associated, in vivo, to target organs were assessed by HPLC.
At selected time points (2 and 180 min.) after administration of tritiated pentapeptide, the anesthetized rats were sacrificed (cardiac blood puncture) and tissues quickly removed on ice. The tissues were immediately homogenized at 4° C. in 5-10 volumes of 0.1 M chlorhydric acid using a potter homogenizer (demineralization of bone tissue was realized after 24-48 h at 4° C. in guanidium hydrochloride and EDTA pretreatment, 4 M and 0.25 M final concentration, respectively). Homogenates were centrifuged for 30 min. at 4° C. and 15,000 g. To determine total radioactivity, aliquots of the supernatant solution were added to 50 volumes of Biofluor (NEN, Dupont de Nemours, France) and counted in a liquid scintillation counter.
To determine the radioactivity in the pentapeptide fraction, aliquots of the tissue extracts were submitted to a methanol-extraction procedure (Rougeot et al., 1994) after neutralization with Tris/HCl pH 8.5 containing 16 mM DTPA (DiethyleneTriaminePenta-Acetic acid, Sigma, France). The methanol phase was removed from the supernatant by partial evaporation, then lyophilization and the reconstituted aqueous phase containing 16 mM DTPA was applied to ODS AQ column (HPLC RP C18 chromatography) (AIT, France). Elution with a linear gradient of 0.1% trifluoro acetic (TFA) in water/0.1% TFA in acetonitrile (Merck, France) from 100/0 (vol/vol) to 50/50 (vol/vol) was performed for 30 min. at a flow rate of 1 ml/min. Fractions were collected every 60 sec. and analyzed for radioactivity using a liquid scintillation counter.

[2] = Pentapeptide metabolic and pharmacokinetic study after i.v. bolus of tritiated pentapeptide; format: in vivo, rat
Experimental: The in vivo time course of distribution, metabolism and elimination of the pentapeptide was investigated in anesthetized adult male rats using physiological concentrations of circulating tritiated pentapeptide.
Anesthetized male rats were given a bolus intravenous injection of 170 pmoles or 110 ng tritiated pentapeptide diluted in 100 μl PBS Dulbecco's. Blood was collected in tubes containing a mixture of peptidase inhibitors described above, via a silastic catheter implanted into the external jugular vein. Blood was withdrawn just before and 2, 4, 6, 8, 10, 20, 30, 45, 60, 90 and 120 min. after peptide administration. Two milliliters of blood per rat were taken in all and the entire urinary bladder content was collected at a last selected point.
The biological samples were submitted to centrifugation and Parapak Q extraction conditions, as described above. Chromatrography using HPLC procedure described above and in the reference (Rougeot et al., 1994) was then applied to each extracted sample. The ODS AQ RP-C18 was used for identification of amino-terminal metabolites and Pep RPC HR C18 (Pharmacia, France) for identification of carboxyl-terminal metabolites. The radioactivity content of samples before and after chromatographic separations was determined using a beta counter (Kontron, MR300).

[3] = tested on: pentapeptide binding sites; test: Cellular localization of 3H-pentapeptide binding sites by light microscopic autoradiography, in vivo radiolabeling; parameters: species or system rat
Experimental: The cellular-site localization for physiological concentrations of labeled pentapeptide was investigated by paraffin- or resin-section microscopic autoradiography procedure.
Sixty minutes after ^3H-pentapeptide (555 KBq, 160 ng or 250 pmoles) i.v. administration, the anesthetized male rats were perfused via the jugular veins with ice-cold Krebs Ringer Bicarbonate Glucosed buffer and then 0.5% paraformaldehyde/0.5% glutaraldehyde fixative PBS buffer (plus glucose 1.6%, CaCl2 0.002% and DMSO 1%) (50 ml/5 min. for each). Tissues were rapidly removed and harvested for paraffin sectioning (Paraplast plus-Sherwood medical, OSI, France) or for resin sectioning (histo-resin Leica, France). All sections were cut at 5 microns (Reichert Jung for paraffin and RM2155 Leica for resin sections) and mounted on Superfrost/Plus glass slides (non gelatin-coated). Paraffin was removed with xylene, and sections were carried through a descending, then an ascending ethanol series (from 100 to 50%, VN and reverse). Dried sections were then processed for light microscope autoradiography by attaching nuclear emulsion-coated (Kodak, NTB2, diluted 1:1 with distilled water) coverslips to them. After air drying for 2 hrs at room temperature the autoradiographs were exposed for 6 to 10 weeks in light-tight boxes at 4° C. Radiosensitive coverslips were developed in Kodak D19 (3 min.) developer and fixed in Kodak fixer (3 min.) Sections were counterstained with Harris' hematoxylin (Prolabo, France) and Toluidine blue (Sigma, France), dehydrated and mounted in Eukitt medium. The tissue and overlying silver grains were viewed and photographed with a Leica photomicroscope equipped with bright-field optics (DMRD Leitz, Leica).

peptide binding sites = test: In vivo displacement experiments with coinjection of 100-fold excess of unlabeled peptide; parameters: species or system rat
Source text: Biological receptor sites have two essential characteristics that allow specific binding to be identified, in vivo; they have a high affinity for the ligand and the binding is saturable (Whitcomb et al., 1993). Therefore, displacement experiments, using parallel systemic administration of an excess of the corresponding unlabeled peptide has been performed. Furthermore, the specific cellular localization of labeled pentapeptide to target tissues has been identified by section microscopic autoradiography.
The tritium activity was determined as counts/mm^2.
In the case of radioactive quantification of organ sections or acid extracts, using a liquid scintillation counter (MR300 Kontron), the tritium activity was determined as cpm/mg protein. Protein concentration was determined by the Bradford method (Bradford et al., 1976).

[4] = rat, in vivo
Experimental: Labeled compound i.e. 6.66 MBq, 3 nmoles or 2 mg for whole body autoradiography (WBA) and 370-555 KBq, 170-250 pmoles or 110-160 ng for the pharmacokinetic and cellular-site distribution studies was diluted in 100-200 ml of phosphate-buffered saline (PBS Dulbecco's, Bio Media, France) and administered intravenously into the jugular vein of anesthetized rats (halothan for WBA or pentobarbital for all the other experiments).
The five week-old rats were sacrificed under halothane, at 90 sec., 3, 60 and 240 min. after i.v. injection of 3 nmoles (6.66 MBq or 2 μg) of tritiated pentapeptide. At the selected time, the restrained animal was immediately immersed in a −80° C. mixture of dry ice and isopentane, to prevent artefactual tracer redistribution. After 48 hours in self-sealing plastic stored at −30° C., the animal was then blocked in mounting medium. Whole body sagittal sections (20 mm) of the frozen rat were made at −30° C. with a cryostat (whole body slicing microtome Leitz 400 with a chest mobil freezer Leitz O M, Leica, France). […]
The quantitative determination of the radioactivity in various organ sections was carried out by using a gaseous detector of β-particles, which has recently been developed (Charpak et al., 1989; Tribollet et al., 1991). […] The number of counts per pixel was recorded in the β imager 2200 (Biospace, France) with a surface detector of 20×20 cm^2, followed by computer-assisted image analysis with the β Vision program using a HP Vectra computer. The tritium activity was determined as counts/mm^2. The linearity of this method of detection allowed measurement of the non specific binding of ^3H-pentapeptide, measured in various structures or compartments within the section with apparent non binding sites for the peptide (background tissues, e.g. muscle and cardiac blood except brain and spinal cord) or in the same labeled structure, in displacement experiments. […]
Assessment of tissue peptide targeting was accomplished by a β-radio imager quantification (FIG. 2). […]

anti-pentapeptide serum = test: competitive liquid phase RIA, unlabelled standard displaces 125I-labelled pentapeptide from the antiserum
[5] = 180 min after injection, DTPA extraction
[6] = 60 min, 100-fold excess unlabeled peptide

QHNPR (not fully specified (residue 4)) [pentapeptide]
tissue radioactivity extracted from acid homogenates by methanol ([1]; 5-20 min survival time after 3 nmoles 3H-pentapeptide): 72±4%
radioactive peptide fraction extracted by methanol with DTPA (16 mM) ([1]; 180 min after injection): 53±9%
radioactive extract representing metabolites [1, 5]: 8±6%
radioactive extract representing undissociated peptide complex [1, 5]: 29±14%
radioactivity recovered in RP-HPLC peak of free pentapeptide ([1]; 180 min after injection, DTPA extraction, target organs): 52±8%
radioactivity eliminated through glomerular filtration ([2]; anesthetized rats, over a 60 min period, 170 pmoles injected): 6 pmol
distribution volume ([2]; male rat): 35-40 ml/100 g. body weight
pentapeptide-binding substance complex as share of circulating peptide fraction ([2]; plasma, dissociated by acidic pH treatment): approximately 45%
time from which plasma concentration is close to basal level ([2]; single i.v. injection of 110 ng tritiated pentapeptide): 30 min
time to maximal plasma level ([2]; single i.v. injection of 110 ng tritiated pentapeptide, two male rats): ≤ 2 min
urine radioactivity that is pentapeptide metabolites ([2]; urinary bladder content): Approximately 80%
infused pentapeptide metabolized in the bloodstream ([2]; within 4 min, proteolysis from the amino-terminal part): 35%
cellular localization of label in submandibular tissue ([3]; 60 min post-injection): no selective cell association of label was identifiable
cellular localization of silver grains in glandular gastric mucosa ([3]; 60 min post-injection): over the chief or peptic cells
cellular localization of silver grains in pancreatic tissue ([3]; 60 min post-injection): over the cells of acini
localization of silver grains in upper incisor root ([3]; 60 min post-injection): over the entire dentin layer
cellular localization of silver grains in kidney ([3]; 60 min post-injection of physiological concentration (160 ng)): over the epithelial cells of the S3 segment of the straight portion of the proximal tubules
specific labeling percentage, glandular mucosa of the stomach (peptide binding sites; [6]): 38-61%
specific labeling percentage, long bone (peptide binding sites; [6]): 29-38%
specific labeling percentage, pancreatic lobules (peptide binding sites; [6]): 37-55%
specific labeling percentage, submandibular lobules (peptide binding sites; [6]): 51-91%
displacement of 3H-pentapeptide uptake within the renal outer medullary (peptide binding sites; 60 min post-coinjection of 100-fold excess of unlabeled peptide): almost complete displacement
specific labeling percentage, kidney (peptide binding sites; FIG. 8-B, depends on analysis method (total tissue count or regional analysis)): 12 to 92%
persistence of label within target tissues [4]: > 240 min
radioactivity in intestinal content [4]: No radioactivity was found in the intestinal content
tissue to blood ratio [4]: ~2

QHNPR [[Gln^1] pentapeptide]
50% displacement of the 125I-labelled pentapeptide (anti-pentapeptide serum): < 570 fmol
detection limit (80% binding) (anti-pentapeptide serum): 106 fmol

[pGlu]HNPR [[Glp^1] pentapeptide]
50% displacement of the 125I-labelled pentapeptide (anti-pentapeptide serum): < 570 fmol
detection limit (80% binding) (anti-pentapeptide serum): 106 fmol
